This is an account of results in patent US7285380B2, “Methods of producing polyketide synthase mutants and compositions and uses thereof” (The Salk Institute for Biological Studies, priority 2000, dated 2007).

One data set has as its system CHS. The note with it: cited from earlier work.
The nature of data set [1]: TLC-based radiometric assay of product formation by 2-PS, CHS and CHS mutants (LC/MS confirmation). The data set is classed as biochemical. As to conditions: for product formed: 100 mM Hepes pH 7.0, 30 μM starter-CoA, 60 μM [14C]-malonyl-CoA, 25° C. The source says: Comparison of the initiation/elongation cavities of 2-PS (SEQ ID NO:68) and CHS (SEQ ID NO:1) reveal four amino acid differences. In 2-PS, Leu202, Met259, Leu261, and Ile343 replace Thr197, Ile254, Gly256, and Ser338, respectively, of CHS. These four substitutions reduce cavity volume from 923 Å^3 in CHS to 274 Å^3 in 2-PS. A model of methylpyrone in the 2-PS cavity, based on the position of acetoacetyl-CoA, emphasizes the volume change compared to the CHS-naringenin complex (Accession No. 1 CGK, SEQ ID NO:69). Leu202 and Ile343 occlude the portion of the 2-PS cavity corresponding to the coumaroyl-binding site of CHS. Replacement of Gly256 in CHS by Leu261 in 2-PS severely reduces the size of the active site cavity. Substitution of Met259 in 2-PS for Ile254 in CHS produces a modest alteration in cavity volume. To examine the functional importance of these amino acid differences, the initiation/elongation cavity of CHS was altered by mutagenesis to resemble that of 2-PS. The resulting mutant proteins were screened for activity using either p-coumaroyl-CoA or acetyl-CoA as starter molecules. Activities of 2-PS, CHS, and the CHS mutants were determined by monitoring product formation using a TLC-based radiometric assay. Assay conditions were 100 mM Hepes (pH 7.0), 30 μM starter-CoA (either p-coumaroyl-CoA or acetyl-CoA), and 60 μM [^14C]-malonyl-CoA (50,000 cpm) in 100 μl at 25° C. Reactions were quenched with 5% acetic acid, extracted with ethyl acetate, and applied to TLC plates and developed. Due to the spontaneous cyclization of chalcone into the flavanone naringenin, activities of CHS are referenced to nanngenin formation.
The x-ray crystal structures of 2-PS (SEQ ID NO:68) and CHS (SEQ ID NO:1) imply that the size of the active site cavity limits polyketide length and modulates folding of the polyketide chain. […] Since the T197L, G256L, and S338Imutants (see SEQ ID NO:1) altered product formation, a CHS triple mutant was generated. […] LC/MS/MS analysis was performed by the Mass Spectroscopy facility of the Scripps Research Institute. Scaled-up assays (2 ml reaction volume) with the CHS T197L/G256L/S338I mutant (see SEQ ID NO:1) and 2-PS (SEQ ID NO:68) were performed. Extracts were analyzed on a Hewlett-Packard HP1100 MSD single quadrupole mass spectrometer coupled to a Zorbax SB-C18 column (5 μm, 2.1 mm×150 mm). HPLC conditions were as follows: gradient system from 0 to 100% methanol in water (each containing 0.2% acetic acid) within 10 mm; flow rate 0.25 ml min^−1. LC/MS/MS data from both reactions were identical: 6-methyl-4-hydroxy-2-pyrone, Rt=5.068 mm; [M-H]^−125; [M-H—CO2]^−81. The numbers show m/z values with relative intensities in parenthesis. The observed fragmentation matches previously published data.

The target in data set [2] is 2-Pyrone synthase (2-PS) from Gerbera hybrida (Gerbera hybrida). As to the kind of experiment: X-ray crystal structure, homodimer interface.
Data set [3] is described as follows: Malonyl-CoA decarboxylation by C164S mutant (crystallographic and functional assay). The data set is classed as biochemical. The source says:
Asn336 appears to play a crucial role in the decarboxylation reaction. […] In the hexanoyl-CoA complex, the side chain amide of Asn336 provides a hydrogen bond to the carbonyl oxygen of the thioester. This interaction would stabilize the enolate anion resulting from decarboxylation of malonyl-CoA (see FIG. 6). At the same time, the lack of formal positive charge at Asn336 may preserve the partial carbanion character of this resonance-stabilized anion, and thus the nucleophilicity of the carbanion form.

Data set [4] is described as follows: 14C malonyl-CoA assay of CHS mutants, products analysed by TLC and autoradiography (naringenin vs resveratrol). As to conditions: TLC autoradiography. The data set is classed as biochemical. The source says: Wild type CHS produces chalcone, which spontaneously converts to naringenin, the position of which is indicated by the arrow on the left. Wild type STS produces resveratrol, the position of which is indicated by the arrow of the right. Function conversion of CHS to STS (i.e., the production of the alternate product from the same intermediate) results in diminished production of naringenin and increased production of resveratrol. Various mutants of CHS produce varying degrees of resveratrol, showing that CHS activity can be altered to STS-like activity to different extents by different mutations.
Mutant CHS (SEQ ID NO: 1) has altered activity based on assays conducted with ^14C malonyl-CoA. Products were extracted with ethyl acetate and analyzed by silica gel thin layer chromatography (TLC) and visualized by autoradiography.

The nature of data set [5]: Activity and kinetics of 18xCHS / 8xCHS compared with wild type CHS and STS. It counts as biochemical. The note with it: listed as 8×CHS.
Setting [6] is: starter p-coumaroyl-CoA or acetyl-CoA.

Residue numbers refer to the chain shown, from its start. In names and notes the source's numbering stands. Entries after “also recorded” stand apart in the source; their conditions may differ.

In the case of `C/C=C/C/C=C/CCC(=O)[C@H]1O[C@H]1C(N)=O` [Cerulenin], in the data set on CHS, the “inhibition of CHS” value is reported as “potent irreversible inhibitor of CHS”. The “inactivation of CHS after preincubation with substrate” value with CHS (preincubation with coumaroyl-CoA or malonyl-CoA) is “Preincubation of CHS with coumaroyl-CoA prevents inactivation by cerulenin, but pre-incubation with malonyl-CoA does not”.
On to “Wild-type CHS: wild type alfalfa chalcone synthase 2, SEQ ID NO:1 [reference compound]”, for which the product formed result in data set [1] is on record as “generates the tetraketide chalcone”. The “preference for p-coumaroyl-CoA versus acetyl-CoA as starter molecule” value in data set [1] (setting [6]) is listed as 230 fold.
For “2-PS: 2-Pyrone synthase from Gerbera hybrida, SEQ ID NO:68 [Mutant 2-PS, reference compound]”, in data set [1], the product formed result is given as “produces the triketide methylpyrone; also recorded: yields methylpyrone produced from three malonyl-CoA molecules”. For the same molecule, the starter molecule accepted result in data set [1] (setting [6]) is recorded as “accepts acetyl-CoA but does not use p-coumaroyl-CoA”.
“2-Pyrone synthase (2-PS) from Gerbera hybrida (enzyme)” came in with a surface area buried per monomer by the dimerization surface in data set [2] of 1800 Å^2.

B1: C164S: alfalfa CHS C164S mutant (protein, listed as Medicago sativa)
chain: MVSVSEIRKAQRAEGPATILAIGTANPANCVEQSTYPDFYFKITNSEHKTELKEKFQRMCDKSMIKRRYMYLTEEILKENPNVCEYMAPSLDARQDMVVVEVPRLGKEAAVKAIKEWGQPKSKITHLIVCTTSGVDMPGADYQLTKLLGLRPYVKRYMMYQQGSFAGGTVLRLAKDLAENNKGARVLVVCSEVTAVTFRGPSDTHLDSLVGQALFGDGAAALIVGSDPVPEIEKPIFEMVWTAQTIAPDSEGAIDGHLREAGLTFHLLKDVPGIVSKNITKALVEAFEPLGISDYNSIFWIAHPGGPAILDQVEQKLALKPEKMNATREVLSEYGNMSSACVLFILDEMRKKSTQNGLKTTGEGLEWGVLFGFGPGLTIETVVLRSVAI
In the case of B1, in data set [3], the “catalytic / decarboxylation activity on malonyl-CoA” value is “retains decarboxylation activity; also recorded: retains limited catalytic activity; also recorded: produces acetyl-CoA”.

B2: G256L: CHS G256L mutant (protein, listed as Medicago sativa)
chain: B1 chain with S164C, G256L
On to B2, for which, in data set [1], the product formed entry is on record as “do not form chalcone”. Moreover, the “preference for acetyl-CoA as starter molecule” value in data set [1] (setting [6]) is 3 fold.

B3: I254M: CHS I254M mutant (protein, listed as Medicago sativa)
chain: B1 chain with S164C, I254M
Regarding B3, in data set [1], the “function and specific activity relative to wild-type enzyme” value is “functionally comparable to wild-type enzyme with a modest reduction in specific activity”; the product formed result is on record as “yields chalcone”.

B4: 2B: alfalfa CHS mutant: A1 (D96A, V98L, V99A, V100M), A2 (T131S, S133T, G134T, V135P, M137L) (protein, UniProt P30074 1-389, looked up, variant D96A V98L V99A V100M T131S S133T G134T V135P M137L)
Chalcone synthase 2: B1 chain with D96A, V98L, V99A, V100M, T131S, S133T, G134T, V135P, M137L, S164C
Turning to B4, in data set [4], the naringenin amount entry is “reduced amounts of naringenin compared to wild type CHS” and the resveratrol amount entry is on record as “little or no resveratrol”.

B5: A4: alfalfa CHS mutant: A4 (L268K, K269G, D270A, G273D) (protein, UniProt P30074 1-389, looked up, variant L268K K269G D270A G273D)
Chalcone synthase 2: B1 chain with S164C, L268K, K269G, D270A, G273D
On to B5, for which the “product profile (naringenin or chalcone versus resveratrol), cyclization specificity” value in data set [4] is reported as “no effect on cyclization specificity”.

B6: T197L: CHS T197L mutant (protein, listed as Medicago sativa)
chain: B1 chain with S164C, T197L
With B6, the product formed entry in data set [1] was “do not form chalcone; also recorded: form a distinct product using coumaroyl-CoA as a starter molecule”. Also, the “preference for p-coumaroyl-CoA versus acetyl-CoA as starter molecule” value in data set [1] (setting [6]) stood at 10 fold.

B7: 14B: alfalfa CHS mutant: V98L, T131S, S133T, G134T, V135P, M137L (protein, UniProt P30074 1-389, looked up, variant V98L T131S S133T G134T V135P M137L)
Chalcone synthase 2: B1 chain with V98L, T131S, S133T, G134T, V135P, M137L, S164C
Regarding B7, in data set [4], the naringenin amount entry is recorded as “reduced amounts of naringenin compared to wild type CHS” and the resveratrol amount entry is on record as “little or no resveratrol”.

B8: 16B: alfalfa CHS mutant: V98L, T131S, S133T, G134T, V135P, M137L, M158G, Y160F (protein, UniProt P30074 1-389, looked up, variant V98L T131S S133T G134T V135P M137L M158G Y160F)
Chalcone synthase 2: B1 chain with V98L, T131S, S133T, G134T, V135P, M137L, M158G, Y160F, S164C
As to B8, in data set [4], the naringenin amount entry was “reduced amounts of naringenin compared to wild type CHS” and the resveratrol amount entry is recorded as “various amounts of resveratrol”. In data set [5], the “activity and kinetics compared with STS” value was “activity that is similar to the 18×CHS mutant”.

B9: T197L/G256L/S338I: CHS triple mutant with cavity resembling 2-PS (protein, listed as Medicago sativa)
chain: B1 chain with S164C, T197L, G256L, S338I
Turning to B9, the product formed entry in data set [1] is given as “produces only methylpyrone”. The starter molecule accepted entry in data set [1] (setting [6]) is “only accepts acetyl-CoA (or malonyl-CoA) as the starter molecule”.

B10: S338I: CHS S338I mutant (protein, listed as Medicago sativa)
chain: B1 chain with S164C, S338I
Consider B10, for which the values for the product formed result in data set [1] and in data set [1] (listed as S3381) were “do not form chalcone” and “form a distinct product using coumaroyl-CoA as a starter molecule”, respectively. In addition, the “preference for p-coumaroyl-CoA versus acetyl-CoA as starter molecule” value in data set [1] (setting [6]) is reported as 3 fold.

B11: 4B: alfalfa CHS mutant: A1 (four), A2 (five), A3 (M158G, Y160F), A4 (K269G) (protein, UniProt P30074 1-389, looked up, variant D96A V98L V99A V100M T131S S133T G134T V135P M137L M158G Y160F K269G)
Chalcone synthase 2: MVSVSEIRKAQRAEGPATILAIGTANPANCVEQSTYPDFYFKITNSEHKTELKEKFQRMCDKSMIKRRYMYLTEEILKENPNVCEYMAPSLDARQAMLAMEVPRLGKEAAVKAIKEWGQPKSKITHLIVCSTTTPDLPGADYQLTKLLGLRPYVKRYGMFQQGCFAGGTVLRLAKDLAENNKGARVLVVCSEVTAVTFRGPSDTHLDSLVGQALFGDGAAALIVGSDPVPEIEKPIFEMVWTAQTIAPDSEGAIDGHLREAGLTFHLLGDVPGIVSKNITKALVEAFEPLGISDYNSIFWIAHPGGPAILDQVEQKLALKPEKMNATREVLSEYGNMSSACVLFILDEMRKKSTQNGLKTTGEGLEWGVLFGFGPGLTIETVVLRSVAI
For the molecule B11, in data set [4], the naringenin amount result is given as “reduced amounts of naringenin compared to wild type CHS” and the resveratrol amount entry is “various amounts of resveratrol”.
